According to article PMC5455435, “Fibrin Hydrogel Based Bone Substitute Tethered with BMP-2 and BMP-2/7 Heterodimers” (Materials, 2015):

Columns and labels:
[1] = target: T1, BMP-7 (human, UniProt P18075 293-431); test: non-reduced Western blot with two-colour infrared detection; TG-BMP-2 and BMP-7 monomers combined in equimolar amounts and refolded together, heterodimer purified by heparin affinity, size exclusion and reverse phase chromatography; non-reduced blot probed with anti-BMP-2/4 (700 nm) and anti-BMP-7 (800 nm); overlapping bands indicate the heterodimer; details: both partners purified
T1 construct: Non-glycosylated (made in E. coli); also called BMP-7 monomer; BMP-7 chain of TG-BMP-2/BMP-7
T1 sequence (looked up): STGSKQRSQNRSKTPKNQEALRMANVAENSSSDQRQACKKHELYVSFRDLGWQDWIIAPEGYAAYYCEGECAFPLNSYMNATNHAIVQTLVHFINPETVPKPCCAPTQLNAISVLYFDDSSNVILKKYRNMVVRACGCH

[2] = target: the molecule itself; test: SEC; purified monomers refolded at 4 °C in 50 mM Tris pH 8.5, 1 M NaCl, 5 mM EDTA, 2% CHAPS, 2 mM reduced and 1 mM oxidized glutathione; after reverse phase chromatography the dimer was isolated on a HiLoad Superdex 75 column

B1: TG-BMP-2 (ligand, human)
chain: MNQEQVSPLPVELPLIKMKPHQAKHKQRKRLKSSCKRHPLYVDFSDVGWNDWIVAPPGYHAFYCHGECPFPLADHLNSTNHAIVQTLVNSVNSKIPKACCVPTELSAISMLYLDENEKVVLKNYQDMVVEGCGCR
notes: One chain is written; also called engineered BMP-2; TG-BMP-2 monomer
binding result [1]: binds
binding result [2]: binds

B2: BMP-2 (ligand, human, UniProt P12643 283-396, looked up)
chain: QAKHKQRKRLKSSCKRHPLYVDFSDVGWNDWIVAPPGYHAFYCHGECPFPLADHLNSTNHAIVQTLVNSVNSKIPKACCVPTELSAISMLYLDENEKVVLKNYQDMVVEGCGCR
notes: bone morphogenetic protein 2 (BMP-2), human, active BMP-2 protein only; also called BMP-2 homodimer; regular BMP-2 without the TG site
binding result [2]: binds
